Assay results reported in patent US11407819B2, “Compositions and use of a fibrinogen binding motif present in EFB and COA for therapeutics and vaccines against Staphylococcus aureus” (priority 2013, dated 2022).

Columns and labels:
[1] = tested on: C2C12-α1 and C2C12-α2 cells (human integrin α1 or α2 subunits); test: C2C12 cell adhesion to coated DC proteins; type: cell-based, mouse; settings: 10 μg coated protein; 1 hour
Description: Integrin interactions with DC2-Fg—A11 cell culture supplies were purchased from Life Technologies and used as received unless otherwise noted. […] Mouse myoblast C2C12, C2C12-α1, and C2C12-α2 cells were cultured in Dulbecco's modified Eagle's medium (DMEM) with 10 vol % fetal bovine serum (FBS) and 1 vol % penicillin-streptomycin, 1 mg ml^−1 geneticin, or 10 μg ml^−1 puromycin, respectively. To assess C2C12 cell adhesion, 48 well tissue culture polystyrene (TCPS) plates were coated with 10 μg of DC1 (negative control—no integrin binding sites), DC2, DC2-Fg, or collagen type I (positive control) overnight at 4° C. Proteins were coated in triplicate for each cell type. Wells were blocked with 4 wt % bovine serum albumin (BSA) in PBS for 1 hour at room temperature and rinsed with sterile PBS. Cells were adapted to serum-free media (DMEM with 1 mM CaCl2, 1 mM MgCl2, and appropriate antibiotic) for 12 hours prior to trypsinization and seeding at 5,000 cells cm^−1. […] Lysates from samples and from known standards were transferred to a 96 well plate, and cell numbers were measured with the CYTOTOX 96® NON-RADIOACTIVE CYTOTOXICITY ASSAY. […] Then, 50 μl of stop solution was added to each well, and the absorbance was read at 490 nm. Cell numbers were quantified using standards of known cell numbers for each cell line.

[2] = biological target: T1, Fibrinogen (Homo sapiens, UniProt P02671+P02675+P02679); test: Solid phase binding assay, fibrinogen binding to coated DC2, DC2-Fg, Efb; settings: read-out: apparent KD of fibrinogen binding
T1 sequence (P02671 20-629 limits assumed): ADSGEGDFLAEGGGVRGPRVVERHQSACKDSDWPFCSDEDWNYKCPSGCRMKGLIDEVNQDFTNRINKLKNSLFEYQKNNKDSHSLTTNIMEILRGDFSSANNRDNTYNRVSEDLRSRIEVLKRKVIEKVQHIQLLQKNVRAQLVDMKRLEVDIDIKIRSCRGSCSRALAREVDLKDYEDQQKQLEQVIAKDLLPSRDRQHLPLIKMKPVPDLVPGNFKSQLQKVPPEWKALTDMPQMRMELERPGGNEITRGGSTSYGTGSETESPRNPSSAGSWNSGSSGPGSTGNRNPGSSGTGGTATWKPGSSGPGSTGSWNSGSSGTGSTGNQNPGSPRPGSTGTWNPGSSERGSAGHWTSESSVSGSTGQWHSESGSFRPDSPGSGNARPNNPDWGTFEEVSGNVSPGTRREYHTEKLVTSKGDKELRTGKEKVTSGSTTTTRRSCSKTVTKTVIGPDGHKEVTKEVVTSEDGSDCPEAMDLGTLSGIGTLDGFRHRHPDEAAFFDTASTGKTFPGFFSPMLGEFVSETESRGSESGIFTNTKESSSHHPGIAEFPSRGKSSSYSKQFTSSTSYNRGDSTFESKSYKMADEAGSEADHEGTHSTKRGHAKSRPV
T1 sequence (P02675 31-491): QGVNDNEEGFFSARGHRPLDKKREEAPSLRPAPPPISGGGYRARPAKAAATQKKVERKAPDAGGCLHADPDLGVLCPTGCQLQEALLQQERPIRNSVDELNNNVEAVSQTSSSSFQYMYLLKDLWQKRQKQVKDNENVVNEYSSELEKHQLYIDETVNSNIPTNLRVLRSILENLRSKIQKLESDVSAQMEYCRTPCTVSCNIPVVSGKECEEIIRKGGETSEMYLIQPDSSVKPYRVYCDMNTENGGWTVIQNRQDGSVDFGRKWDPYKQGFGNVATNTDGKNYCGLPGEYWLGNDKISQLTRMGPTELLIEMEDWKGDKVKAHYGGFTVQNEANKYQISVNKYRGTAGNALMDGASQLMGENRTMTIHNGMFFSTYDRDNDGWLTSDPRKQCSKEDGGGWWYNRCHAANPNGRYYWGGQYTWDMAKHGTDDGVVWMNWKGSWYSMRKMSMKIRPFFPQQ
T1 sequence (P02679 27-453): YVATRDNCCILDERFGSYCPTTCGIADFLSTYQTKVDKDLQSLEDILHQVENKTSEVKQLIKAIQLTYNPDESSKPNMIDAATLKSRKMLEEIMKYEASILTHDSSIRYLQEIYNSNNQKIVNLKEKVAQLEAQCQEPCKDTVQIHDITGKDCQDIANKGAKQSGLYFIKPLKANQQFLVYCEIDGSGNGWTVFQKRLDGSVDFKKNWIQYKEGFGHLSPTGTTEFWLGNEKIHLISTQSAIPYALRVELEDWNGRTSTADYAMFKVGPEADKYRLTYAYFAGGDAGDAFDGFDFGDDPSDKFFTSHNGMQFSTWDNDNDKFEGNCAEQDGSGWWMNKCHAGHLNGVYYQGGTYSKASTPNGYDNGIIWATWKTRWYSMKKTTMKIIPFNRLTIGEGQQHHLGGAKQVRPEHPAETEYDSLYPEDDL
Description: Solid phase binding assay-: Microtiter wells were coated with 1 μg of DC2, DC2-Fg, or Efb overnight at 4° C. to assess fibrinogen adhesion to DC proteins. Coated wells were blocked with 4 wt % BSA in PBS for 1 hour at room temperature. Fibrinogen was added to each protein-coated well in a serial dilution from 100 to 0 μg/well (0.3 to 0 μM). After 1 hour of incubation at room temperature, a sheep anti-fibrinogen antibody was applied to the wells (1:1000 dilution) for 1 hour at room temperature. An HRP-labelled secondary antibody to sheep was applied to the wells for 1 hour at room temperature, and […]™ OPD was utilized to detect bound fibrinogen via an absorbance reading at 450 nm on a THERMOMAX™ plate reader. Studies were performed in triplicate, and plates were washed three times between each step with 200 μl of PBS with 0.1 vol % TWEEN® 20.

[3] = biological target: T2, rCoa-C binding to Fg (Homo sapiens, UniProt P02671+P02675+P02679); test: Competition ELISA, peptide inhibition of rCoa-C (Coa 311-636) binding to Fg; settings: increasing concentrations of peptides; 4 nM GST fusion protein
T2 construct: full-length human Fibrinogen (diluted in PBS, Enzyme research); purchased Enzyme research; host or cells: Coa probe made in E. coli BL21
T2 sequence (P02671 20-629 limits assumed): T1 sequence (P02671 20-629 limits assumed)
T2 sequence (P02675 31-491): T1 sequence (P02675 31-491)
T2 sequence (P02679 27-453): T1 sequence (P02679 27-453)
Description: The residues in Coa-RI important for fibrinogen binding. FIG. 12A is a panel of coa-RI variant peptides were synthesized where each residue in the sequence is individually replaced with Ala (or Ser when the native a.a. is Ala). […] Wells were coated with 0.25 μg/well Fg. Labels -1, -2, -3, -4, -5, -6, -7, -8, -9, -10, -11, -12, -13, -14, -15, -16, -17, -18, -19, -20, -21, -22, -23, -24, -25, -26, -27 refer to Coa-RI-1, Coa-RI-2, Coa-RI-3, Coa-RI-4, Coa-RI-5, Coa-RI-6, Coa-RI-7, Coa-RI-8, Coa-RI-9, Coa-RI-10, Coa-RI-11, Coa-RI-12, Coa-RI-13, Coa-RI-14, Coa-RI-15, Coa-RI-16, Coa-RI-17, Coa-RI-18, Coa-RI-19, Coa-RI-20, Coa-RI-21, Coa-RI-22, Coa-RI-23, Coa-RI-24, Coa-RI-25, Coa-RI-26, Coa-RI-27, respectively. FIG. 12C is a comparison of amino acid sequence of Efb-O with Coa-RI. FIG. 12D is a Fg-binding register of tandem repeats in Coa. Bold letters denote the residues that are important for Fg binding. Binding of a fixed concentration of rCoa-C (2 nM) to immobilized Fg was determined in the presence of a fixed concentration of these peptides (50 uM) (FIG. 12B). […]
FIG. 13A is a schematic presentation of Coa peptides. […] The Fg binding activities of these peptides were then investigated in a competition ELISA where the binding of rCoa-C to Fg coated microtiter wells were determined in the presence of increasing concentrations of peptide (FIG. 13B). […]

Substance	C2C12-α1 and C2C12-α2 adhesion [1]	Kd [2]	inhibition of rCoa-C binding to fibrinogen by overlapping Coa R peptides [3]
DC2-Fg: DC2 with Fg binding motif Efb-O inserted after position 301 Gln (KYIKFKHDYNILEFNDGTFEYGARPQFNKPA; left off: things letters cannot carry; small tags and cut ends)	significantly increased C2C12-α1 and C2C12-α2 adhesion relative to DC2	~10 nM	
Efb-O: Fg binding motif Efb 68-98 (SEQ ID NO:1); coated comparator in b135 is Efb		~1 nM	
sCoa-RI2: 27-residue overlapping Coa repeat I peptide (AYNVTTHANGQVSYGARPTYKKPSETN)			some inhibitory activity
